The supplement of paper PMC9170038

System: MS2 coat protein
Test: apparent KD of MS2 coat protein; designed switch direction (-1 OFF switch, 1 ON switch): -1; higher = weaker reporter binding
Method in brief: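 Apparent KD, taken as the median over clusters for each design, was obtained by curve-fitting normalised cluster fluorescence. Designed RNA switches had been transcribed on Illumina chips by stalled E. coli RNA polymerase and titrated with SNAP-549-labelled MS2 coat protein, doubling from 0.7 or 1.5 nM to 3 µM.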

[1] = Eterna round: R95, input ligand: microRNA oligo, concentration not stated
[2] = Eterna round: R95, input ligand: FMN 200 uM
[3] = Eterna round: R95, input ligand: none
[4] = input ligand: microRNA oligo, concentration not stated

Sequence | apparent KD of MS2 coat protein [1] | apparent KD of MS2 coat protein (input ligand: FMN 200 uM) | apparent KD of MS2 coat protein (input ligand: none) | also measured
UUAUACGCUGAGGAUAUUAUCACUGAGAGGUGAUGAGAAGGCGGUACAUGAGGAUCACCCAUGUCUAUGGGCAG [Ex-6 Malc#22] (puzzle: Exclusion 6) | 237 nM | – | – | –
AAUACAAUAAUUAAAGAGAUAGUACAUUAUACAAGUGAAACAUGAGGAUCACCCAUGUCCUCAUUUGCUCGUCUAAU [Hunting Buffalo with a BB Gun] (puzzle: Sensor v3, turn-off variant 2) | 142 nM | – | – | apparent KD of MS2 coat protein [2]: 334 nM; apparent KD of MS2 coat protein [3]: 435 nM
AAUAAGGGAGGAUAUGCGGAACGGUUUGUUCUCAGUGAGGCACAUGAGGAUCACCCAUGUAGAAGGCCCGGCAA [Orinar] (puzzle: Exclusion 2) | 13 nM | – | – | –
AGAGAAUAGGUAGGAUAUCUUAAUAGAAAGAAUAGAGAAGGACCACAUGAGGAUCACCCAUGUGAUGUCUUGAGACUACAUGGU [Prohibition 32 - Jieux - Exclusion NG 1] (Eterna round: R96, puzzle: Exclusion NG 1) | – | – | – | apparent KD of MS2 coat protein [4]: 13.3 nM
GGUUUACAAGGAUAUACAAAGGUCUUGUGAUCUGUGCGAGGACAUGAGGAUCACCCAUGUAGAAGGUGUCUGCU [Eternabot (L2) Solution 77] (Eterna round: R97, puzzle: Exclusion 2) | – | 193 nM | 114 nM | –
AAACUAGUAGAGGAUAUUCCAGGCAGUGUUUGAGAAGAAGGCUACACAUGAGGAUCACCCAUGUGGCCUGGUGG [Riedbi] (puzzle: Exclusion 6) | 12.8 nM | – | – | –
UUUUGACAUGAGGAUCACCCAUGUGAGGAUAUGAUGCGAUCGUCGAAAGACGAUAGCAUCAGAAGGCACAUAUG [Fiskers Ex 1 - 9] (puzzle: Exclusion 1) | 125 nM | – | – | –
UGAGUGCUGCGAGGAUAUACAUGAGGAUCACCCAUGUAUACCUGUGAGGCUUUGCCUCACAGGUAGUAGAAGGCGCAGUACUCU [Mat - Exclusion NG 2 - Mod of JL - D44] (Eterna round: R96, puzzle: Exclusion NG 2) | – | 13.1 nM | 12.8 nM | apparent KD of MS2 coat protein [4]: 9.11 nM
GCUCGCGGGCAAGGAUAUCCUACGCUGUUCUGGUUCGUGUCUGUUACAUGAGGAUCACCCAUGUGGGAGAAGGUGCACCAGGGC [Design 48] (Eterna round: R96, puzzle: Exclusion NG 2) | – | 13.7 nM | 14.7 nM | apparent KD of MS2 coat protein [4]: 9.98 nM
UAAUUGAUUAAUAAAUAAUACAUGAGGAUCACCCAUGUAGAUCCUACAUACCAUUUAAGUAGCUCGUCUUAUUAUUA [Sensor-V1 #62] (Eterna round: R97, puzzle: Sensor, turn-off variant 1) | – | 217 nM | 213 nM | –
CCUUAGUUAGGAUAUAUUAAGGCCUCUGUGAGCGCAGGGCAAUAGAAGGAACAUGAGGAUCACCCAUGUAUGGA [Eternabot (L2) Solution 98] (Eterna round: R97, puzzle: Exclusion 4) | – | 38.6 nM | 29.7 nM | –
ACUUGUUGUCCUUGAUAUUACAUGAGGAUCACCCAUGUUAUUGUGAUUUUGAUGUGUAAGUUUGUUGCUCGUCUUAU [JR_STOV1_Sub064] (Eterna round: R97, puzzle: Sensor, turn-off variant 1) | – | 70.2 nM | 71.5 nM | –
AACCAUGAAGGAUAUGACUUAACGAACAUGAGGAUCACCCAUGUGACCGAGCAGUGUUGAUCAGAAGGUUAAGGUG [Rier] (puzzle: Exclusion 5) | 83.7 nM | – | – | apparent KD of MS2 coat protein [2]: 101 nM; apparent KD of MS2 coat protein [3]: 139 nM
ACACAAAGCUAGGAUAUCGAGGCAUCUUCGGCCCGAGAAGGAGCCACAUGAGGAUCACCCAUGUGGUGAUCCUG [eternacac ex6r4 sub4] (Eterna round: R97, puzzle: Exclusion 6) | – | 100 nM | 121 nM | –
UUGUUACAUGAGGAUCACCCAUGUGAGGAUAUGGUUCAGUAAUGUAAUGUAAAGUACUCCAGAAGGCACAUGUU [1st #27] (Eterna round: R97, puzzle: Exclusion 1) | – | 1510 nM | 809 nM | –
CCGACGUGAGGAUAUCCAUCUGGAUCAGACUAGAUCCUGAUGGAGAAGGCACAUGAGGAUCACCCAUGUUACGG [Eli 4x 4.41] (Eterna round: R97, puzzle: Exclusion 4) | – | 909 nM | 524 nM | –
CUUUUGUGAGGAUAUCAGUAGUAAAUAAAUAAAUUAACUACUGAGAAGGCACAUGAGGAUCACCCAUGUUCCUU [Mat - Exclusion 4 - Mod of Salish - D65] (puzzle: Exclusion 4) | 13.7 nM | – | – | –
GCCGGUUAAGUCAGGAUAUACCUAUGGAUACAUAGGUAGAAGGGACAUGAGGAUCACCCAUGUUCCUCAUCGGC [Fiskers BMX 4 - 13] (puzzle: Brourd's mod of Exclusion 4) | 13.3 nM | – | – | –

Sequence | apparent KD of MS2 coat protein [1] | apparent KD of MS2 coat protein (input ligand: FMN 200 uM) | apparent KD of MS2 coat protein (input ligand: none) | also measured
AAUAACAAGCCGAUCCUCCACAUGAGGAUCACCCAUGUGUUCGUCUUGUAAAGUACUAUCACGAAAGUGAUAGUACA (Eterna round: R97, puzzle: Sensor, turn-off variant 1) | – | 23 nM | 30.5 nM | –
UGUGCGUAUGUGAGGAUAUGCUGGUCCUUGGCUCGGCAGAAGGCACAUGAGGAUCACCCAUGUGGUGUCGUACC [salish99_Bmod_ex4_060] (puzzle: Brourd's mod of Exclusion 4) | 33.1 nM | – | – | –
AUAAUACAUGUAGGAUAUCUGCACGAUUAGUGCAGAGAAGGACAUGAGGAUCACCCAUGUAAUUAAGAUCAAUUAUUAAAUUAU [ENG1/3-D1] (Eterna round: R96, puzzle: Exclusion NG 1) | – | 238 nM | 57 nM | apparent KD of MS2 coat protein [4]: 63.9 nM
AAAUGACAUUAGGAUAUGUAACGCGGUUGCCGCACAGAAGGGAUGACUUGAGGAUCACCCAAGUGACCCAAGGA [Tixebion] (Eterna round: R97, puzzle: Exclusion 6) | – | 26.4 nM | 28.2 nM | –
UUAAAUCAUGUAGGAUAUGCGUGGCGAAGCUAUGCAGAAGGACAUGAGGAUCACCCAUGUUCUGCGGUCUGCGUACAGAUCGCA [JL ENG1 1.05] (Eterna round: R96, puzzle: Exclusion NG 1) | – | 502 nM | 42.7 nM | apparent KD of MS2 coat protein [4]: 29.1 nM
AACCCUUGUGUUAGGAUAUGUCACUACCAUAUGCGACAGAAGGAACAUGAGGAUCACCCAUGUGAGUUAGCCAA [Quesveququ] (puzzle: Brourd's mod of Exclusion 4) | 36 nM | – | – | –
CAAACCAGAGGAUAUGCGCAUAGAUCAGACUUUGUUUCUUAACAUGAGGAUCACCCAUGUAGAAGGCUGUAAAA [Ex2 #73] (Eterna round: R97, puzzle: Exclusion 2) | – | 18.4 nM | 17.6 nM | –
CCGCUCCGUGUAGGAUAUUGGCCUGCUCUGGGUCGAGAAGGACAUGAGGAUCACCCAUGUAUGUUAUUAUCACGCGUGGCGCAU [Design 80] (Eterna round: R96, puzzle: Exclusion NG 1) | – | 41.8 nM | 29.3 nM | apparent KD of MS2 coat protein [4]: 18.9 nM
GGUGUGCUAGGAUAUGCUUUGGGCUCGCUUUCCUUCGUUUUACUUGAGGAUCACCCAAGUAGAAGGUGCUUGCC [salish99_ex2_r4_038] (Eterna round: R97, puzzle: Exclusion 2) | – | 13 nM | 13 nM | –
CUCUUGGCAGGAUAUGCUCUUUUAGACAUGAGGAUCACCCAUGUGCUCAUUCCUUCUUUUGCAGAAGGGCCUUAAC [JR_E5_Sub048] (puzzle: Exclusion 5) | 63.8 nM | – | – | –
AAAGGACGAGGAUAUACAUGAGGAUCACCCAUGUAAAAAGCAUAAUAAAAUAACUUAUGUAGAAGGCGUCCAAA [Mat - Exclusion 3 - Eli mod - D91] (Eterna round: R96, puzzle: Exclusion 3) | – | – | – | apparent KD of MS2 coat protein [4]: 18.5 nM
AUGUUGUCAGGAUAUCUUACAUAACAAUCGUUGUUACCAUUGGAGAAGGGACAUGAGGAUCACCCAUGUUAACC [tap-tap-tappy45] (Eterna round: R97, puzzle: Exclusion 4) | – | 23.9 nM | 21.5 nM | –
ACAUGAGGAUCACCCAUGUCCGGCUGGUCCGUCUCGGCUGUCGAGGAUAUGGCUCGGUGUCCGCGCUAGAAGGUGGGAGCCGGC [Aenatbe mod 73] (Eterna round: R96, puzzle: Exclusion NG 3) | – | 332 nM | 266 nM | apparent KD of MS2 coat protein [4]: 127 nM
AAUUAAGCAAGCAGAUCCCACAUGAGGAUCACCCAUGUGCUCGUCUUAUAAGGUACUGUGACGAAAGUCACGGUACC [Mat - Sensor, turn-off var - Eli Mod - D72] (Eterna round: R97, puzzle: Sensor, turn-off variant 1) | – | 129 nM | 120 nM | –
UUUAACGAUGAGGAUAUAUGAUAUCAAAGCAUCAUAGAAGGCAUCACAUGAGGAUCACCCAUGUGAUCUUCUUU [Mat - Exclusion 6 - JL Mod - D29] (Eterna round: R97, puzzle: Exclusion 6) | – | 69.6 nM | 16.6 nM | –
CUCGUGCAGCAAAGCUGUACGAGUACAUGAGGAUCACCCAUGUAGGAUAUGGUACGCUUUGCGUGCUAGAAGGAUAUGUGUAGG [Mat - Exclusion NG 3 - Mod of JL - D86] (Eterna round: R96, puzzle: Exclusion NG 3) | – | 37.5 nM | 36.1 nM | apparent KD of MS2 coat protein [4]: 24.1 nM
AGUAACAGAGGAUAUACUGUUUUAUGUGUUUAUUGUUUUGAACAUGAGGAUCACCCAUGUAGAAGGCUGAAUAA [JMF 94] (puzzle: Exclusion 2) | 21.7 nM | – | – | –
AUCCAACAUGAGGAUCACCCAUGUGAGGAUAUGCCCAAAACUCUUCGAUCCGAAGAGCGCAGAAGGCACAUGAA [EX1 A.18] (Eterna round: R97, puzzle: Exclusion 1) | – | 33.4 nM | 13.2 nM | –
